Measurements reported in patent publication US20210107983A1 (Boehringer Ingelheim, published 2021).

T1: human B7H6 on HCT-15 cells (human, UniProt Q68D85 25-454)
T1 sequence (looked up): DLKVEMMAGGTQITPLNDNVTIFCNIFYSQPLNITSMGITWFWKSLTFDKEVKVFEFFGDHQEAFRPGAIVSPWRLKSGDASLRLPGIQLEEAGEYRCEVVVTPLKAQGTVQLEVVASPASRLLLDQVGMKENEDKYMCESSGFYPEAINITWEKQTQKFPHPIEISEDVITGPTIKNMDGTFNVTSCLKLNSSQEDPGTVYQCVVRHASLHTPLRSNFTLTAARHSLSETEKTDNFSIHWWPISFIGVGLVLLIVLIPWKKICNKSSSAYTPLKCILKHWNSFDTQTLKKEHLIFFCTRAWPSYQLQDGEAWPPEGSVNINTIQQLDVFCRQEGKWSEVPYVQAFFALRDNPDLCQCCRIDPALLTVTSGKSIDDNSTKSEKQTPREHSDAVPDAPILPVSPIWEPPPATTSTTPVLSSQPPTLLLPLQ


How the values were obtained:
[1] = target: T2, Fc-His-tagged human Ala-mutated B7H6 ECD (human); assay: ELISA, plate coated with Fc-His-tagged human Ala-mutated B7H6 ECD, anti-human IgG F(ab')2-peroxidase, TMB
T2 construct: also called huB7H6-Ala-ECD
Protocol: To assess binding of B7H6/CD3 binding proteins to recombinant human Fc-His-tagged B7H6 ECD and human Fc-His-tagged Ala-mutated B7H6 extracellular proteins as described in Example 3, MediSorp™ plates (Nunc, 467320) were coated with […] recombinant proteins overnight at 4° C. The next day, plates were blocked with 0.5% bovine serum albumin (BSA) in phosphate buffered saline (PBS) for 1 hour at room temperature (RT). Subsequently plates were washed with […] containing 0.05% TWEEN®20 viscous liquid and B7H6/CD3 binding proteins were incubated at concentrations ranging from 0.00001 to 10 μg/ml. After an additional washing step, bound B7H6/CD3 binding proteins were detected by a peroxidase conjugated goat anti-human IgG F(ab′)₂-specific secondary antibody (Jackson Immunoresearch) and visualized by TMB substrate solution (Bender Med Systems).

[2] = target: T1, human B7H6 on HCT-15 cells; assay: cell-based or functional assay
[3] = target: T3, Fc-His-tagged human B7H6 ECD (human); assay: ELISA, plate coated with Fc-His-tagged human B7H6 ECD, anti-human IgG F(ab')2-peroxidase, TMB
T3 construct: also called huB7H6-ECD-Fc-His; recombinant human B7H6 ECD

[4] = target: T1, human B7H6 on HCT-15 cells; assay: flow cytometry on HCT-15 cells, PE anti-human secondary antibody
Protocol: Binding of B7H6/CD3 binding proteins to HCT-15, a human (colo-rectal cancer) CRC cell line was tested by flow cytometry. In a previous experiment, it has been confirmed that HCT-15 cells expresses B7-H6 on the RNA levels as well as the protein level with approximately 8,000 B7-H6 receptors on the cell surface (data not shown). B7H6/CD3 binding proteins were produced, as described in Example 2. HCT-15 cells were stained with increasing concentrations of two-step purified B7H6/CD3 binding proteins in FACS buffer (PBS/0.5% BSA/0.05% sodium azide). Bound molecules were detected with PE-conjugated anti-human secondary antibody (Sigma-Aldrich, #P8047).

| Binder | binding result [1] | EC50 [nM], 72 hour cytotoxicity assay, non-stimulated T-cells (Donor #1) as effector cells, HCT-15 cells as target cells [2] | EC50 (read off the curve) [3] | EC50 (read off the curve) [4] |
| --- | --- | --- | --- | --- |
| B7H6#6/CD3#1 (bispecific antibody, human IgG1, kappa, lambda, L234A L235A, scFab-Fc heterodimer, one B7H6 chain and one CD3 chain) chain 1: DIVMTQSPDSLPVSAGDRVTITCKASQSVSNDVVWYQQKPGQSPKLLMYSTSNRYIGVPDRFTGSGYGTDFTFTISTVQAEDLAVYFCQQDYSSPYTFGGGTKLEIKRTVAAPSVFIFPPSDEQLKSGTASVVCLLNNFYPREAKVQWKVDNALQSGNSQESVTEQDSKDSTYSLSSTLTLSKADYEKHKVYACEVTHQGLSSPVTKSFNRGECGGGGSEGKSSGSGSESKSTEGKSSGSGSESKSTGGGGSEVQLQQSGPELLKPGASVKISCKTSGYTFTDYTMHWVKQSHGKSLEWIGGINPNYDNTGYSEKFKDKATLTVDKSSSTAYMELRSLTSEDSAVYYCTRSGSRRSFYFDYWGQGTTLTVSSASTKGPSVFPLAPSSKSTSGGTAALGCLVKDYFPEPVTVSWNSGALTSGVHTFPAVLQSSGLYSLSSVVTVPSSSLGTQTYICNVNHKPSNTKVDKRVEPKSCDKTHTCPPCPAPEAAGGPSVFLFPPKPKDTLMISRTPEVTCVVVDVSHEDPEVKFNWYVDGVEVHNAKTKPREEQYNSTYRVVSVLTVLHQDWLNGKEYKCKVSNKALPAPIEKTISKAKGQPREPQVYTLPPSREEMTKNQVSLWCLVKGFYPSDIAVEWESNGQPENNYKTTPPVLDSDGSFFLYSKLTVDKSRWQQGNVFSCSVMHEALHNHYTQKSLSLSPG chain 2: EAVVTQEPSLTVSPGGTVTLTCRSSTGAVTTSNYANWVQEKPGQLPRGLIGGTNKRAPWVPARFSGSLLGGKAALTLSGAQPEDEAEYFCALWYSNLWVFGGGTKLTVLGQPKAAPSVTLFPPSSEELQANKATLVCLISDFYPGAVKVAWKADGSPVNTGVETTTPSKQSNNKYAASSYLSLTPEQWKSHRSYSCQVTHEGSTVEKTVAPAECSGGGGSEGKSSGSGSESKSTEGKSSGSGSESKSTGGGGSEVQLVESGGGLVQPGGSLKLSCAASGFTFNTYAMNWVRQAPGKGLEWVARIRSKYNNYATYYADSVKDRFTISRDDSKNTAYLQMNNLKTEDTAVYYCVRHGNFGNSYVSWFAYWGQGTLVTVSAASTKGPSVFPLAPSSKSTSGGTAALGCLVKDYFPEPVTVSWNSGALTSGVHTFPAVLQSSGLYSLSSVVTVPSSSLGTQTYICNVNHKPSNTKVDKRVEPKSCDKTHTCPPCPAPEAAGGPSVFLFPPKPKDTLMISRTPEVTCVVVDVSHEDPEVKFNWYVDGVEVHNAKTKPREEQYNSTYRVVSVLTVLHQDWLNGKEYKCKVSNKALPAPIEKTISKAKGQPREPQVYTLPPSREEMTKNQVSLSCAVKGFYPSDIAVEWESNGQPENNYKTTPPVLDSDGSFFLVSKLTVDKSRWQQGNVFSCSVMHEALHNRFTQKSLSLSPG | no binding (tested: 10 µg/ml) | 0.46 nM | ~0.05 µg/mL | – |
| B7H6#8/CD3#1 (bispecific antibody, human IgG1, kappa, lambda, L234A L235A, scFab-Fc heterodimer, one B7H6 chain and one CD3 chain) chain 1: DIVMTQSPLSLPVTPGEPASISCRSSQSLLYNNRYNYLDWYLQKPGQSPEVLIYLGSNRASGVPDRFSGSGSGTDFTLKISRVEAEDFGVYYCMQTLQIPITFGQGTRLEIKRTVAAPSVFIFPPSDEQLKSGTASVVCLLNNFYPREAKVQWKVDNALQSGNSQESVTEQDSKDSTYSLSSTLTLSKADYEKHKVYACEVTHQGLSSPVTKSFNRGECGGGGSEGKSSGSGSESKSTEGKSSGSGSESKSTGGGGSQVQVVQSGAEVKKPGSSVKVSCKGSGDTLNSYGISWMRQAPGQGLEWMGGIIPIFDTTKYAQKFQGRVTITADKSTTTVYMELSSLRFEDTAVYYCARERGYRFSEDYYFYYGMDVWGQGTTVTVSSASTKGPSVFPLAPSSKSTSGGTAALGCLVKDYFPEPVTVSWNSGALTSGVHTFPAVLQSSGLYSLSSVVTVPSSSLGTQTYICNVNHKPSNTKVDKRVEPKSCDKTHTCPPCPAPEAAGGPSVFLFPPKPKDTLMISRTPEVTCVVVDVSHEDPEVKFNWYVDGVEVHNAKTKPREEQYNSTYRVVSVLTVLHQDWLNGKEYKCKVSNKALPAPIEKTISKAKGQPREPQVYTLPPSREEMTKNQVSLWCLVKGFYPSDIAVEWESNGQPENNYKTTPPVLDSDGSFFLYSKLTVDKSRWQQGNVFSCSVMHEALHNHYTQKSLSLSPG chain 2: EAVVTQEPSLTVSPGGTVTLTCRSSTGAVTTSNYANWVQEKPGQLPRGLIGGTNKRAPWVPARFSGSLLGGKAALTLSGAQPEDEAEYFCALWYSNLWVFGGGTKLTVLGQPKAAPSVTLFPPSSEELQANKATLVCLISDFYPGAVKVAWKADGSPVNTGVETTTPSKQSNNKYAASSYLSLTPEQWKSHRSYSCQVTHEGSTVEKTVAPAECSGGGGSEGKSSGSGSESKSTEGKSSGSGSESKSTGGGGSEVQLVESGGGLVQPGGSLKLSCAASGFTFNTYAMNWVRQAPGKGLEWVARIRSKYNNYATYYADSVKDRFTISRDDSKNTAYLQMNNLKTEDTAVYYCVRHGNFGNSYVSWFAYWGQGTLVTVSAASTKGPSVFPLAPSSKSTSGGTAALGCLVKDYFPEPVTVSWNSGALTSGVHTFPAVLQSSGLYSLSSVVTVPSSSLGTQTYICNVNHKPSNTKVDKRVEPKSCDKTHTCPPCPAPEAAGGPSVFLFPPKPKDTLMISRTPEVTCVVVDVSHEDPEVKFNWYVDGVEVHNAKTKPREEQYNSTYRVVSVLTVLHQDWLNGKEYKCKVSNKALPAPIEKTISKAKGQPREPQVYTLPPSREEMTKNQVSLSCAVKGFYPSDIAVEWESNGQPENNYKTTPPVLDSDGSFFLVSKLTVDKSRWQQGNVFSCSVMHEALHNRFTQKSLSLSPG | no binding (tested: 10 µg/ml) | 0.62 nM | ~0.05 µg/mL | ~400 pM |
